# Results published in patent US20220073643A1 (NANJING GENSCRIPT BIOTECH, published 2022).
# Where “and” joins values, the source holds several entries; their conditions need not be identical. Equal entries are not always repeated.
# B1: 423C10E1 (antibody, V domains shown)
# VH: DVQLVESGGGLVQPGGSRKLSCVTSGFTFSSFGMHWVRQAPEKGLEWVAFISGGGSPIFYADSVKGRFTVSRDNPKNTLFLQMTGLRSEDTAMYFCARFYFGNSFAYWGQGTLVTVSA
# VL: DIVMTQSPSSLTVTAGEKVTMNCRSSQSLFNSGNQKNYLTWYQQKPGQSPKLLIYWASTRESGVPVRFTGSGSGTDFTLTISSVQAEDLAVYYCQTSFNYPLTFGPGTKLELK
# B2: 182D10F1 (antibody, V domains shown)
# VH: QAYLQQSGAELVRSGASVKMSCKASGYTFSSYNMHWVKQTPGQGLEWIGYIYPGNGGTNYNQKFKGKATLTADTSSSTAYMQISSLTSEDSAVYFCLTGRGFTYWGQGTLVTVSA
# VL: DIVMTQSPSSLTVTAGEKVTMNCKSSQSLFNSGNQKNYLTWYQQKPGQPPKLLIYRASTRESGVPDRFTGSGSGTDFTLTISSVQAEDLAVYYCQNDYSYPLTFGVGTKLELK
# B3: 207F8G5 (antibody, V domains shown)
# VH: QAYLQQSGAELVRSGASVKMSCKASGFTFTSYNIHWVKQTPGQGLEWIGYISPGNGGSNYNLKFKDKATLTSATSSSTAYMQISSLTSEDSAVYFCATGRGFAYWGQGTLVTVSA
# VL: DIVMTQSPSSLTVTPGEKVTMSCKSSQSLFNSGNQKNYLIWYQQKPGQPPKLLIYRASTRDSGVPDRFTGSGSGTDFTLTISNVQAEDLAIYYCQNDYSYPLTFGAGTKLELK
# B4: 222B6G5 (antibody, V domains shown)
# VH: QTYLQQSGAELVRSGASVKMSCKASGYTFTSYNIHWVKQTPGQGLEWIGYISPGNGGTYYNLKFKDKATLTTATSSSTAYMQISSLTSEDSAVYFCATGRGFAYWGQGTLVTVSA
# VL: DIVMTQSPSSLTVTPGEKVTMSCKSSQSLFNSGNQKNYLIWYQQKPGQPPKLLIYRASTRDSGVPDRFTGSGSGTDFTLTISNVQAEDLAVYYCQNDYSYPLTFGAGTKLELK
# B5: 217D9G2 (antibody, V domains shown)
# VH: QAYLQQSGAELVRSGASVKMSCKASGFTFTSYNIHWVKQTPGQGLEWIGYISPGNGGSNYNLNFKDKATLTAATSSTTAYMQISSLTSEDSAVYFCATGRGFAYWGQGTLVTVSA
# VL: DIVMTQSPSSLTVTPGEKVTMSCRSSQSLFNSGNQKNYLIWYQQKPGQPPKLLIYRASTRDSGVPDRFTGSGSGTDFTLTISNVQAEDLAVYYCQNDYSYPLTFGAGTKLELK
# B6: 429G4E9 (antibody, V domains shown)
# VH: DVQLVESGGGLVQPGGSRKLSCAASGFTFSSFGMHWVRQAPEKGLEWVAYISSGSSPIYYADTVKGRFTISRDNPKNTLFLQMTSLRSEDTAMYFCATFYYGNSFAYWGQGTLVTVSA
# VL: DIVMTQSPSSLTVTAGEKVTMSCKSSQTLLNSGNQKNYLTWYQQKSGQPPKLLIYWASTRESGVPDRFTGSGSGTDFTLTISSVQAEDLAVYYCQNAYSYPVTFGSGTKVELK
# B7: 429H6C5 (antibody, V domains shown)
# VH: DVQLVESGGGLVQPGGSRKLSCAASGFTFSSFGMHWVRQAPEKELEWVAYISSGSSTIYYAHTVKGRFTISRDNPKNTLFLRMTSLGSEDTAMYYCVRFYYGNSFVNWGQGTLVTVSA
# VL: DIVMTQSPSSLTATAGEKVTMSCKSSQSLLNSGNQKNYLTWYQQKPGQPPKMLIYWASTRESGVPDRFAGSGSGTDFTLTISSVQAEDLAVYYCQNAYIYPLTFGAGTRLELK
# B8: 424G9G3 (antibody, V domains shown)
# VH: QVQLQQSGPEVVRPGASVKMSCKGSGYTLNNFWMHWVKQRPGQGLEWIGMIDTSNGETRLNQIFKDKATLTVDKSSKTAYMQLSSLTSEDSAVYYCAPYGNFADWGQGTTLTVSS
# VL: DVLLTQTPLSLPVSLGDQASISCRSSQSIVYGNGNTYLEWYLQKPGQSPKLLIYKVSSRFSGVPDRFSGSGSGTDFTLKITKVEAEDLGVYYCFQGSHVPFTFGSGTKLEIK
# B9: 421H4G3 (antibody, V domains shown)
# VH: DVQLVESGGGLVQPGGSRKLSCAASGFSFSGFGLHWIRQTPEKGLEWVAYISSGSRPIYYADTVKGRFTISRDNPKNTLFLQMTSLRSEDTAMYFCARFYFGNSFDHWGQGTLVTVST
# VL: DIVMTQSPSFLTVTAGEKVTMSCRSSQSLLNSGNQRNYLTWYQQKPGQPPKLLIYWASTRESGVPDRFTGSGSGTDFTLTINSVQAEDLALYYCQNAYSFPLTFGAGTKLELK
# B10: 219F9B8 (antibody, V domains shown)
# VH: QAYLQQSGAELVRSGASVRMSCKASGYTFTSYNMHWVKQTPGQGLEWIGYIYPGNGHTNYNQKFKGKATLTADTSSSTAYMQISSLTSEDSAVYFCATGRGFAYWGQGTLVTVSA
# VL: DIVMTQSPSSLTVTAGEKVTMSCKSSQSLLNSGNQKNYLTWYQQKPGQPPKLLIYRASTRESGVPDRFTGSGSGTDFTLTISSVQAEDLAVYYCQNDYSYPLTFGVGTKLELK
# B11: 422E8F9 (antibody, V domains shown)
# VH: DVQLVESGGGLVQPGGSRKLSCAASGFTFSGFGMHWIRQTPEKGLEWVAYISSGSRPIYYADTVQGRFTISRDNPKNTLFLQMTSLRSEDTAMYFCARFYYGNSFDHWGQGTLVTVSS
# VL: DIVMTQSPSFLTVTAGEKVTMSCKSSQSLLNSGNQKNYLTWYQQKPGQPPKLLIYWASTRESGVPDRFTGSGSGTDFTLTISSVQAEDLALYYCQNAYSFPLTFGAGTKLELK
# B12: 423B2B5 (antibody, V domains shown)
# VH: DVQLVESGGGLVQPGGSRKLSCAASGFTFSSFGMHWVRQAPEKGLEWVAYISSGSSPIYYSDTVKGRFTISRDNPKNTLFLQMSSLRSEDTAMYFCARIYYGNSFDHWGQGTLVTVSA
# VL: DIVMTQSPSSLTVTAGEKVTMNCKSSQSLLNSGNQKNYLTWYQQKPGQPPKLLIYWASTRESGVPDRFTGSGSGTDFTLTISSVQAEDLAVYYCQNDYSYPLTFGAGTKLELK
# B13: 422F4B6 (antibody, V domains shown)
# VH: DVQLVESGGGLVQPGGSRKLSCAASGFSFSSFGMHWVRQAPEKGLEWVAYISSGSSPIYYADTVKGRFIISRDNPKNTLFLQMTSLRSEDTAMYFCARIYYGNSFAYWGQGTLVTVSA
# VL: DIVMTQSPSSLTVTAGEKVTMSCKSSQTLLNSGNQKNYLTWYQQKPGQPPKLLIYWASTRESGVPDRFTGSGSGTDFTLTISSVQAEDLAVYYCQNAYSYPLTFGSGTKLELK
# B14: 426H6E11 (antibody, V domains shown)
# VH: DVQLVESGGGLVQPGGSRKLSCAASGFTFSGFGMHWIRQTPEKGLEWVAYISSGSRPIYYADTVQGRFTISRDNPKNTLFLQMTSLRSEDTAMYFCARFYYGNSFDHWGQGTLVTVSS
# VL: DIVMTQFPSFLTVTAGEKVTMSCKSSQTLLNSGNQKNYLTWYQQKPGQPPKLLIYWASTRESGVPDRFTGSGSGTDFTLTISSVQAEDLALYYCQNAYSFPLTFGAGTNLELK
# B15: 430B3F1 (antibody, V domains shown)
# VH: DVQLVESGGGLVQPGGSRKLSCAASGFTFSGFGMHWIRQTPEKGLEWVAYISSGGRPIYYADTVQGRFTISRDNPKNTLFLQMTSLRSEDTAMYFCARFYYGNSFDHWGQGTLVTISS
# VL: DIVMTQSPSFLTVTAGEKVTMSCKSSQSLLNSGNQKNYLTWYQQKPGQPPKLLIYWASTRESGVPDRFTGSGSGTDFTLTISSVQAEDLALYYCQNAYSFPLTFGAGTKLELK
# B16: 425B3D5 (antibody, V domains shown)
# VH: DVQLVESGGGLVQPGGSRKLSCAASGFTFSGFGMHWIRQTPEKGLEWVAYISSGSRPIYYADTVQGRFTISRDNPKNTLFLQMTSLRSEDTAMYFCARFYYGNSFDHWGQGTLVTVSS
# VL: DIVMTQSPSFLTVTAGEKVTMSCKSSQSLLNSGNQKNYLTWYQQKPGQPPKLLIYWASTRESGVPDRFTGSGSGTDFTLTISSVQAEDLALYYCQNAYSFPLTFGAGTKLELK
# B17: 425C6D3 (antibody, V domains shown)
# VH: DVQLVESGGGLVQPGGSRKLSCAASGFTFSGFGMHWIRQTPEKGLEWVAYISSGSRPIYYADTVQGRFTISRDNPKNTLFLQMTSLRSEDTAMYFCARFYYGNSFDHWGQGTLVTVSS
# VL: DIVMTQSPSFLTVTAGEKVTMSCKSSQSLLNSGNQKNYLTWYQQKPGQPPKLLIYWASTRESGVPDRFTGSGSGTDFTLTISSVQAEDLALYYCQNAYSFPLTFGAGTKLELK
# B18: 426D9F6 (antibody, V domains shown)
# VH: DVQLVESGGGLVQPGGSRKLSCAASGFTFSGFGMHWIRQTPEKGLEWVAYISSGSRPIYYADTVKGRFTISRDNPKNTLFLQMTSLRSEDTAMYFCARFYYGNSFDHWGQGTLVTVSA
# VL: DIVMTQSPSFLTVTAGEKVTMSCKSSQSLLNSGNQRNYLTWYQQKPGQPPKLLIYWASTRESGVPDRFTGSGSGTDFTLTVSSVQAEDLALYYCQNAYSFPLTFGAGTKLELK
# B19: 213B10A4 (antibody, V domains shown)
# VH: QAYVQQSGAELVRSGASVKMSCRASGYTFTSYNMHWVKQTPGQGLEWIGYIYPGNGGTYYNQKFKGKATLTADTSSSTAYMQISSLTSEDSAVYFCATGRGFAYWGQGTLVTVSA
# VL: DIVMTQSPSSLTVTAGEKVTMSCKSSQSLLNSGNQKNYLTWYQQKPGQPPKLLIYRASTRESGVPDRFTGSGFGTDFTLTISSVQAEDLAVYYCQNDYSYPLTFGAGTKLELK
# Target: human Claudin18.2 (human)
# Experiment: cell-based or functional assay
Binder,CDC % Relative activity,CDC EC50
B1,56.2%,3.39 µg/mL
B2,195%,0.811 µg/mL
B3,627%,0.305 µg/mL
B4,,0.278 µg/mL and 0.259 µg/mL
B5,707%,0.271 µg/mL
B6,164%,1.23 µg/mL
B7,331%,0.607 µg/mL
B8,9.38%,20.3 µg/mL
B9,65.9%,2.89 µg/mL
B10,603%,0.318 µg/mL
B11,89.2%,2.14 µg/mL
B12,6.38%,29.9 µg/mL
B13,31.6%,6.03 µg/mL
B14,80%,2.51 µg/mL
B15,70.2%,2.87 µg/mL
B16,63%,3.02 µg/mL
B17,96.6%,2.08 µg/mL
B18,32.4%,6.21 µg/mL
B19,121%,1.59 µg/mL
